In patent US20130195871A1 (AbbVie / Abbott, published 2013):
Each block holds one binder with its values, some of them ahead of it.

Experiments:
EGFR on the cell surface [1] = biological target: T1, EGFR on the cell surface (human, UniProt P00533 25-1210); test: flow cytometry on cells, 2 ug/mL, C-terminal VD;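 note: cells stained for 30 to 60 min on ice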
T1 construct: whole, on cells
Protocol: (§1) Stable cell lines overexpressing a cell-surface antigen of interest or human tumor cell lines were harvested from tissue culture flasks and resuspended in phosphate buffered saline (PBS) containing 5% fetal bovine serum (PBS/FBS). Prior to staining, human tumor cells were incubated on ice with (100 μl) human IgG at 5 μg/ml in PBS/FCS. 1-5×10⁵ cells were incubated with antibody or DVD-Ig (2 μg/mL) in PBS/FBS for 30-60 minutes on ice. […] After 30 minutes incubation on ice, cells were washed twice and resuspended in PBS/FBS. Fluorescence was measured using a Becton Dickinson FACSCalibur (Becton Dickinson, San Jose, Calif.).
(§2) The geometric mean is the n root of the multiplication product of n fluorescent signals (a1×a2×a3 . . . an). With log-transformed data the geometric mean is used to normalize the weighting of the data distribution.

EGFR on the cell surface [2] = biological target: T1, EGFR on the cell surface; test: flow cytometry on cells, 2 ug/mL, N-terminal VD;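 note: cells stained for 30 to 60 min on ice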
Protocol: as §1, §2

[3] = biological target: T2, Recombinant Human ErbB3/FC Chimera-His tag (human, UniProt P21860 20-643); test: SPR (Biacore), N-terminal VD;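 note: capture of antibodies or DVD-Ig proteins on an anti-mouse IgG chip surface, recombinant antigen injected at 10–200 nM in HBS-EP running buffer at 25 °C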
T2 construct: bought reagent
Protocol: The BIACORE assay (Biacore, Inc, Piscataway, N.J.) determined the affinity of antibodies or DVD-Ig proteins with kinetic measurements of on-rate and off-rate constants. Binding of antibodies or DVD-Ig proteins to a target antigen (for example, a purified recombinant target antigen) was determined by surface plasmon resonance-based measurements with a Biacore® 1000 or 3000 instrument (Biacore AB, Uppsala. Sweden) using running HBS-EP (10 mM HEPES [pH 7.4], 150 mM NaCl, 3 mM EDTA, and 0.005% surfactant P20) at 25° C. […] For example, approximately 5000 RU of goat anti-mouse IgG, (Fcγ), fragment specific polyclonal antibody (Pierce Biotechnology Inc, Rockford, Ill.) diluted in 10 mM sodium acetate (pH 4.5) was directly immobilized across a CM5 research grade biosensor chip using a standard amine coupling kit according to manufacturer's instructions and procedures at 25 μg/ml. Unreacted moieties on the biosensor surface were blocked with ethanolamine. Modified carboxymethyl dextran surface in flowcell 2 and 4 was used as a reaction surface. Unmodified carboxymethyl dextran without goat anti-mouse IgG in flow cell 1 and 3 was used as the reference surface. For kinetic analysis, rate equations derived from the 1:1 Langmuir binding model were fitted simultaneously to association and dissociation phases of all eight injections (using global fit analysis) with the use of Biaevaluation 4.0.1 software. Purified antibodies or DVD-Ig proteins were diluted in HEPES-buffered saline for capture across goat anti-mouse IgG specific reaction surfaces. Antibodies or DVD-Ig proteins to be captured as a ligand (25 μg/ml) were injected over reaction matrices at a flow rate of 5 μl/minute. The association and dissociation rate constants, kₒₙ (M⁻¹s⁻¹) and koff (s⁻¹) were determined under a continuous flow rate of 25 μl/minute. Rate constants were derived by making kinetic binding measurements at different antigen concentrations ranging from 10-200 nM. The equilibrium dissociation constant (M) of the reaction between antibodies or DVD-Ig proteins and the target antigen was then calculated from the kinetic rate constants by the following formula: KD=koff/kₒₙ. Binding was recorded as a function of time and kinetic rate constants were calculated.

[4] = biological target: T3, Recombinant Human MSP Receptor ECD-His tag (human, UniProt Q04912 25-957); test: SPR (Biacore), C-terminal VD;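 note: surface plasmon resonance with DVD-Ig proteins captured on an anti-IgG chip and recombinant antigen flowed over in HBS-EP buffer, Langmuir global fit, KD taken as koff/kon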
T3 construct: extracellular domain; bought reagent; also called RON

GEO MEAN (EGFR on the cell surface [1]): 252
B1: DVD2338 (bispecific antibody)
VH: QVQLQESGPGLVKPSEILSLTCTVSGGSISSHYWSWVRQPPGKGLEWIGYIYYSGSTNYNPSLKSRVTISVDTSKNQFSLNLSSVTAADTAVYYCARIPNYYDRSGYYPGYWYFDLWGRGTLVTVSSASTKGPEVQLVESGGGLVQPGGSLRLSCAASGFSLTNYGVHWVRQAPGKGLEWLGVGWSGGNTDYNTPFTSRLTINKDNSKNTVYLQMNSLRAEDTAVYYCARALTWYDYEFAYWGQGTLVTVSS
VL: QAVLTQPSSLSAPPGASASLTCTLRSGFNVDSYRISWYQQKPGSPPQYLLRYKSDSDKQQGSGVPSRFSGSKDASANAGILLISGLQSEDEADYYCMIWHSSAWVFGGGTKLTVLRQPKAAPDILLTQSPGTLSLSPGERATLSCRASQSIYTNIHWYQQKPGQAPRLLIKYASESISGIPDRFSGSGSGTDFTLTISRLEPEDFAVYYCQQNLNWPTTFGQGTKLEIK
notes: DVD-Ig, outer AB034 / inner AB400

binding result [3]: no binding (tested: 10-200 nM)
binding result [4]: no binding (tested: 10-200 nM)
B4: DVD2333 (bispecific antibody)
VH: EVQLLESGGGLVQPGGSLRLSCAASGFTFSHYVMAWVRQAPGKGLEWVSSISSSGGWTLYADSVKGRFTISRDNSKNTLYLQMNSLRAEDTAVYYCTRGLKMATIFDYWGQGTLVTVSSASTKGPQVQLQESGPGLVKPSEILSLTCTVSGGSISSHYWSWVRQPPGKGLEWIGYIYYSGSTNYNPSLKSRVTISVDTSKNQFSLNLSSVTAADTAVYYCARIPNYYDRSGYYPGYWYFDLWGRGTLVTVSS
VL: QSALTQPASVSGSPGQSITISCTGTSSDVGSYNVVSWYQQHPGKAPKLIIYEVSQRPSGVSNRFSGSKSGNTASLTISGLQTEDEADYYCCSYAGSSIFVIFGGGTKVTVLGQPKAAPQAVLTQPSSLSAPPGASASLTCTLRSGFNVDSYRISWYQQKPGSPPQYLLRYKSDSDKQQGSGVPSRFSGSKDASANAGILLISGLQSEDEADYYCMIWHSSAWVFGGGTKLTVL
notes: DVD-Ig, outer AB116 / inner AB034

Kd [3]: 12 nM
koff [3]: 0.00031 s⁻¹
kon [3]: 25000 M⁻¹ s⁻¹
binding result [4]: no binding (tested: 10-200 nM)
B5: DVD2321 (bispecific antibody)
VH: EVQLLESGGGLVQPGGSLRLSCAASGFTFSHYVMAWVRQAPGKGLEWVSSISSSGGWTLYADSVKGRFTISRDNSKNTLYLQMNSLRAEDTAVYYCTRGLKMATIFDYWGQGTLVTVSSASTKGPEVQLVQSGGGLVKPGGSLRLSCAASGFTFSSYAMHWVRQAPGKGLEWVAVISYDGSNKYYADSVKGRFTISRDNSKNTLYLQMNSLRAEDTAVYYCARFSGWPNNYYYYGMDVWGQGTTVTVSS
VL: QSALTQPASVSGSPGQSITISCTGTSSDVGSYNVVSWYQQHPGKAPKLIIYEVSQRPSGVSNRFSGSKSGNTASLTISGLQTEDEADYYCCSYAGSSIFVIFGGGTKVTVLGQPKAAPDVVMTQSPLSLPVTPGEPASISCRSSQSLLHSNGFNYVDWYLQKPGQSPHLLIYFGSYRASGVPDRFSGSGSGTDFTLKISRVEAEDVGVYYCMQALQTPPWTFGQGTKVEIR
notes: DVD-Ig, outer AB116 / inner AB005

GEO MEAN (EGFR on the cell surface [1]): 9.84
B6: DVD2347 (bispecific antibody)
VH: EVQLVQSGGGLVKPGGSLRLSCAASGFTFSSFAMHWVRQAPGKGLEWISVIDTRGATYYADSVKGRFTISRDNAKNSLYLQMNSLRAEDTAVYYCARLGNFYYGMDVWGQGTTVTVSSASTKGPQVQLQESGPGLVKPSQTLSLTCTVSGYSISSDFAWNWIRQPPGKGLEWMGYISYSGNTRYQPSLKSRITISRDTSKNQFFLKLNSVTAADTATYYCVTAGRGFPYWGQGTLVTVSS
VL: EIVLTQSPGTLSVSPGERATLSCRASQSIGSSLHWYQQKPGQAPRLLIKYASQSLSGIPDRFSGSGSGTDFTLTISRLEPEDFAVYYCHQSSRLPHTFGQGTKVEIKRTVAAPDIQMTQSPSSMSVSVGDRVTITCHSSQDINSNIGWLQQKPGKSFKGLIYHGTNLDDGVPSRFSGSGSGTDYTLTISSLQPEDFATYYCVQYAQFPWTFGGGTKLEIK

Kd [3]: 7.7 nM
koff [3]: 0.00046 s⁻¹
kon [3]: 60000 M⁻¹ s⁻¹
binding result [4]: no binding (tested: 10-200 nM)
B8: DVD2323 (bispecific antibody)
VH: QVQLQQWGAGLLKPSETLSLTCAVYGGSFSGYYWSWIRQPPGKGLEWIGEINHSGSTNYNPSLKSRVTISVETSKNQFSLKLSSVTAADTAVYYCARDKWTWYFDLWGRGTLVTVSSASTKGPEVQLVQSGGGLVKPGGSLRLSCAASGFTFSSYAMHWVRQAPGKGLEWVAVISYDGSNKYYADSVKGRFTISRDNSKNTLYLQMNSLRAEDTAVYYCARFSGWPNNYYYYGMDVWGQGTTVTVSS
VL: DIEMTQSPDSLAVSLGERATINCRSSQSVLYSSSNRNYLAWYQQNPGQPPKLLIYWASTRESGVPDRFSGSGSGTDFTLTISSLQAEDVAVYYCQQYYSTPRTFGQGTKVEIKRTVAAPDVVMTQSPLSLPVTPGEPASISCRSSQSLLHSNGFNYVDWYLQKPGQSPHLLIYFGSYRASGVPDRFSGSGSGTDFTLKISRVEAEDVGVYYCMQALQTPPWTFGQGTKVEIR
notes: DVD-Ig, outer AB062 / inner AB005

GEO MEAN (EGFR on the cell surface [1]): 6.47
B9: DVD2343 (bispecific antibody)
VH: EVQLVESGGGLVQPGGSLRLSCAASGFTFTDYTMDWVRQAPGKGLEWVADVNPNSGGSIYNQRFKGRFTLSVDRSKNTLYLQMNSLRAEDTAVYYCARNLGPSFYFDYWGQGTLVTVSSASTKGPQVQLQESGPGLVKPSQTLSLTCTVSGYSISSDFAWNWIRQPPGKGLEWMGYISYSGNTRYQPSLKSRITISRDTSKNQFFLKLNSVTAADTATYYCVTAGRGFPYWGQGTLVTVSS
VL: DIQMTQSPSSLSASVGDRVTITCKASQDVSIGVAWYQQKPGKAPKLLIYSASYRYTGVPSRFSGSGSGTDFTLTISSLQPEDFATYYCQQYYIYPYTFGQGTKVEIKRTVAAPDIQMTQSPSSMSVSVGDRVTITCHSSQDINSNIGWLQQKPGKSFKGLIYHGTNLDDGVPSRFSGSGSGTDYTLTISSLQPEDFATYYCVQYAQFPWTFGGGTKLEIK

The remaining lines, values behind:

B2: DVD2307 (bispecific antibody)
VH: EVQLVQSGGGLVKPGGSLRLSCAASGFTFSSFAMHWVRQAPGKGLEWISVIDTRGATYYADSVKGRFTISRDNAKNSLYLQMNSLRAEDTAVYYCARLGNFYYGMDVWGQGTTVTVSSASTKGPEVQLVESGGGLVQPGGSLRLSCAASGFSLTNYGVHWVRQAPGKGLEWLGVGWSGGNTDYNTPFTSRLTINKDNSKNTVYLQMNSLRAEDTAVYYCARALTWYDYEFAYWGQGTLVTVSS
VL: EIVLTQSPGTLSVSPGERATLSCRASQSIGSSLHWYQQKPGQAPRLLIKYASQSLSGIPDRFSGSGSGTDFTLTISRLEPEDFAVYYCHQSSRLPHTFGQGTKVEIKRTVAAPDILLTQSPGTLSLSPGERATLSCRASQSIYTNIHWYQQKPGQAPRLLIKYASESISGIPDRFSGSGSGTDFTLTISRLEPEDFAVYYCQQNLNWPTTFGQGTKLEIK
notes: DVD-Ig, outer AB077 / inner AB400
GEO MEAN (EGFR on the cell surface [1]): 266

B3: DVD2291 (bispecific antibody)
VH: QVQLQESGPGLVKPSETLSLTCTVSGGSVSSGDYYWTWIRQSPGKGLEWIGHIYYSGNTNYNPSLKSRLTISIDTSKTQFSLKLSSVTAADTAIYYCVRDRVTGAFDIWGQGTMVTVSSASTKGPEVQLVESGGGLVQPGGSLRLSCAASGFSLTNYGVHWVRQAPGKGLEWLGVGWSGGNTDYNTPFTSRLTINKDNSKNTVYLQMNSLRAEDTAVYYCARALTWYDYEFAYWGQGTLVTVSS
VL: DIQMTQSPSSLSASVGDRVTITCQASQDISNYLNWYQQKPGKAPKLLIYDASNLETGVPSRFSGSGSGTDFTFTISSLQPEDIATYFCQHFDHLPLAFGGGTKVEIKRTVAAPDILLTQSPGTLSLSPGERATLSCRASQSIYTNIHWYQQKPGQAPRLLIKYASESISGIPDRFSGSGSGTDFTLTISRLEPEDFAVYYCQQNLNWPTTFGQGTKLEIK
GEO MEAN (EGFR on the cell surface [1]): 541
GEO MEAN (EGFR on the cell surface [2]): 541

B7: DVD2290 (bispecific antibody)
VH: EVQLVESGGGLVQPGGSLRLSCAASGFSLTNYGVHWVRQAPGKGLEWLGVGWSGGNTDYNTPFTSRLTINKDNSKNTVYLQMNSLRAEDTAVYYCARALTWYDYEFAYWGQGTLVTVSSASTKGPQVQLQESGPGLVKPSETLSLTCTVSGGSVSSGDYYWTWIRQSPGKGLEWIGHIYYSGNTNYNPSLKSRLTISIDTSKTQFSLKLSSVTAADTAIYYCVRDRVTGAFDIWGQGTMVTVSS
VL: DILLTQSPGTLSLSPGERATLSCRASQSIYTNIHWYQQKPGQAPRLLIKYASESISGIPDRFSGSGSGTDFTLTISRLEPEDFAVYYCQQNLNWPTTFGQGTKLEIKRTVAAPDIQMTQSPSSLSASVGDRVTITCQASQDISNYLNWYQQKPGKAPKLLIYDASNLETGVPSRFSGSGSGTDFTFTISSLQPEDIATYFCQHFDHLPLAFGGGTKVEIK
GEO MEAN (EGFR on the cell surface [1]): 448
GEO MEAN (EGFR on the cell surface [2]): 448

B10: DVD2299 (bispecific antibody)
VH: EVQLVQSGGGLVKPGGSLRLSCAASGFTFSSYAMHWVRQAPGKGLEWVAVISYDGSNKYYADSVKGRFTISRDNSKNTLYLQMNSLRAEDTAVYYCARFSGWPNNYYYYGMDVWGQGTTVTVSSASTKGPEVQLVESGGGLVQPGGSLRLSCAASGFSLTNYGVHWVRQAPGKGLEWLGVGWSGGNTDYNTPFTSRLTINKDNSKNTVYLQMNSLRAEDTAVYYCARALTWYDYEFAYWGQGTLVTVSS
VL: DVVMTQSPLSLPVTPGEPASISCRSSQSLLHSNGFNYVDWYLQKPGQSPHLLIYFGSYRASGVPDRFSGSGSGTDFTLKISRVEAEDVGVYYCMQALQTPPWTFGQGTKVEIRRTVAAPDILLTQSPGTLSLSPGERATLSCRASQSIYTNIHWYQQKPGQAPRLLIKYASESISGIPDRFSGSGSGTDFTLTISRLEPEDFAVYYCQQNLNWPTTFGQGTKLEIK
notes: DVD-Ig, outer AB005 / inner AB400
GEO MEAN (EGFR on the cell surface [1]): 320

B11: DVD2303 (bispecific antibody)
VH: EVQLVESGGGLVQPGGSLRLSCAASGFTFTDYTMDWVRQAPGKGLEWVADVNPNSGGSIYNQRFKGRFTLSVDRSKNTLYLQMNSLRAEDTAVYYCARNLGPSFYFDYWGQGTLVTVSSASTKGPEVQLVESGGGLVQPGGSLRLSCAASGFSLTNYGVHWVRQAPGKGLEWLGVGWSGGNTDYNTPFTSRLTINKDNSKNTVYLQMNSLRAEDTAVYYCARALTWYDYEFAYWGQGTLVTVSS
VL: DIQMTQSPSSLSASVGDRVTITCKASQDVSIGVAWYQQKPGKAPKLLIYSASYRYTGVPSRFSGSGSGTDFTLTISSLQPEDFATYYCQQYYIYPYTFGQGTKVEIKRTVAAPDILLTQSPGTLSLSPGERATLSCRASQSIYTNIHWYQQKPGQAPRLLIKYASESISGIPDRFSGSGSGTDFTLTISRLEPEDFAVYYCQQNLNWPTTFGQGTKLEIK
notes: DVD-Ig, outer AB080 / inner AB400
GEO MEAN (EGFR on the cell surface [1]): 185
